B1: M103205H795-MY327/M103202L889-SK1 (antibody, human IgG1, kappa)
heavy: QVTLKESGPVLVKPTETLTLTCTVSGIDLSHDDISWVRQAPGKGLEWVGIISYAGSTYYASWAKGRLTISKDTSKNQVVLTMTNMDPVDTATYYCARGVPAYSHGGDLWGQGTLVTVSSASTKGPSVFPLAPSSKSTSGGTAALGCLVKDYFPEPVTVSWNSGALTSGVHTFPAVLQSSGLYSLSSVVTVPSSSLGTQTYICNVNHKPSNTKVDKKVEPKSCDKTHTCPPCPAPELLDGPSVFLFPPKPKDTLMISRTPEVTCVVVDVSEEDPEVKFNWYVDGVEVHNAKTKPREELYNSTYRVVSVLTVLHQDWLNGKEYKCKVSNKALPKPIEKTISKAKGQPREPQVYTLPPSREEMTKNQVSLTCLVKGFYPSDIAVEWESNGQPENNYKTTPPVLDSDGSFFLYSKLTVDKSRWQQGNVFSCSVMHEALHNHYTQKSLSLSP
light: DIVMTQSPATLSLSPGERATLSCTSSQSVYHANWLSWFQQKPGQPPKLLIYWASTLAYGVPSRFSGSGSGTDFTLTISSLQPEDAATYYCAGGYGGGRYAFGQGTKVEIKRTVAAPSVFIFPPSDEQLKSGTASVVCLLNNFYPREAKVQWKVDNALQSGNSQESVTEQDSKDSTYSLSSTLTLSKADYEKHKVYACEVTHQGLSSPVTKSFNRGEC
B2: M103205H795-MY329/M103202L889-SK1 (antibody, human IgG1, kappa)
heavy: QVTLKESGPVLVKPTETLTLTCTVSGIDLSHDDISWVRQAPGKGLEWVGIISYAGSTYYASWAKGRLTISKDTSKNQVVLTMTNMDPVDTATYYCARGVPAYSHGGDLWGQGTLVTVSSASTKGPSVFPLAPSSKSTSGGTAALGCLVKDYFPEPVTVSWNSGALTSGVHTFPAVLQSSGLYSLSSVVTVPSSSLGTQTYICNVNHKPSNTKVDKKVEPKSCDKTHTCPPCPAPELLDGPSVFLFPPKPKDTLMISRTPEVTCVVVDVSDEDPEVKFNWYVDGVEVHNAKTKPREELYNSTYRVVSVLTVLHQDWLNGKEYKCKVSNKALPKPIEKTISKAKGQPREPQVYTLPPSREEMTKNQVSLTCLVKGFYPSDIAVEWESNGQPENNYKTTPPVLDSDGSFFLYSKLTVDKSRWQQGNVFSCSVMHEALHNHYTQKSLSLSP
light: DIVMTQSPATLSLSPGERATLSCTSSQSVYHANWLSWFQQKPGQPPKLLIYWASTLAYGVPSRFSGSGSGTDFTLTISSLQPEDAATYYCAGGYGGGRYAFGQGTKVEIKRTVAAPSVFIFPPSDEQLKSGTASVVCLLNNFYPREAKVQWKVDNALQSGNSQESVTEQDSKDSTYSLSSTLTLSKADYEKHKVYACEVTHQGLSSPVTKSFNRGEC

What was measured:
Test in all cases: SPR (Biacore), antibody captured, FcgR analyte, 25 C
[1] = target: T1, cynomolgus monkey FcγRIIa1 extracellular domain, C-terminal His-tag (cynomolgus monkey)
T1 construct: also called cyno FcγRIIa1; cynoFcgRIIa1; not shown: His-tag added to C-terminus
T1 chain: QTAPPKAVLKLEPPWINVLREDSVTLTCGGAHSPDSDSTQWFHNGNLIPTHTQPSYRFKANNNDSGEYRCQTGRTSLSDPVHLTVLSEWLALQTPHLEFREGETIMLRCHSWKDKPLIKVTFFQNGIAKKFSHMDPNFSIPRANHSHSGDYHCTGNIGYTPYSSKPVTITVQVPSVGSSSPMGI
Description: (§1) The kinetic analysis of interactions between these antibodies and FcγR was carried out using BIACORE® T200 or BIACORE® 4000 (GE Healthcare). HBS-EP+ (GE Healthcare) was used as the running buffer, and the measurement temperature was set to 25° C. A chip produced by immobilizing Protein A. Protein A/G or mouse anti-human IgG kappa light chain (BD Biosciences) onto a Series S Sensor Chip CM4 or CM5 (GE Healthcare) by the amine-coupling method was used. […] After the measurement, the antibody captured on the chip was washed off by allowing reaction with 10 mM glycine-HCl, pH1.5 and 25 mM NaOH so that the chip was regenerated and used repeatedly. The sensorgrams obtained as measurement results were analyzed by the 1:1 Langmuir binding model using the BIACORE® Evaluation Software to calculate the binding rate constant ka (L/mol/s) and dissociation rate constant kd (l/s), and the dissociation constant KD (mol/L) was calculated from these values. […] Regarding such interactions, KD values were calculated using the following 1:1 binding model described in BIACORE® T100 Software Handbook BR1006-48 Edition AE.
(§2) The behavior of interacting molecules according to the 1:1 binding model on BIACORE® can be described by Equation 1: Req=C·R max/(KD+C)+RI, wherein, Req is a plot of steady-state binding levels to analyte concentration. C is concentration, RI is bulk refractive index contribution in the sample, and Rmax is analyte binding capacity of the surface. When this equation is rearranged, KD can be expressed as Equation 2: KD=C·Rmax/(Req−RI)−C. KD can be calculated by substituting the values of Rmax, RI, and C into Equation 1 or Equation 2. From the current measurement conditions, RI=0, C=2 μmol/L can be used.

[2] = target: T2, cynomolgus monkey FcγRIIa2 extracellular domain, C-terminal His-tag (cynomolgus monkey)
T2 construct: also called cyno FcγRIIa2; cynoFcgRIIa2; not shown: His-tag added to C-terminus
T2 chain: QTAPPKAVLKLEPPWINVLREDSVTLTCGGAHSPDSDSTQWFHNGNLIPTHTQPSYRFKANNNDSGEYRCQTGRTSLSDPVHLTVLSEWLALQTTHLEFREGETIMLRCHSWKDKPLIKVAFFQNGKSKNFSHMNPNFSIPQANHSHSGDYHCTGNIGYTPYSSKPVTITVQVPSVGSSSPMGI
Description: as §1, §2

[3] = target: T3, cynomolgus monkey FcγRIIa3 extracellular domain, C-terminal His-tag (cynomolgus monkey)
T3 construct: also called cyno FcγRIIa3; cynoFcgRIIa3; not shown: His-tag added to C-terminus
T3 chain: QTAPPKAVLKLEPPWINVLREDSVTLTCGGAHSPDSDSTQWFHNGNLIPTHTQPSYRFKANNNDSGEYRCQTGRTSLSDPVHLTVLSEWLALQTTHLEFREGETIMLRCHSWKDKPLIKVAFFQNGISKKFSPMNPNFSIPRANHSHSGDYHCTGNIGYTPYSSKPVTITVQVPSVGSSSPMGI
Description: as §1, §2

[4] = target: T4, cynomolgus monkey FcγRIIb extracellular domain, C-terminal His-tag (cynomolgus monkey)
T4 construct: also called cyno FcγRIIb; cynoFcγRIIb; not shown: His-tag added to C-terminus
T4 chain: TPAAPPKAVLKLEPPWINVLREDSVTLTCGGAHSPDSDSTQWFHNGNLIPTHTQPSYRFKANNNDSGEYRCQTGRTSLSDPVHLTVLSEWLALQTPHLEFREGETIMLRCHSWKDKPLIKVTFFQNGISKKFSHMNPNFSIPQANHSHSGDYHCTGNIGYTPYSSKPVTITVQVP
Description: as §1, §2

[5] = target: T5, cynomolgus monkey FcγRIIIaS extracellular domain, C-terminal His-tag (cynomolgus monkey, UniProt A3RFZ7 21-206 (rhesus entry))
T5 construct: also called cyno FcγRIIIaS; cynoFcγRIIIaS; not shown: His-tag added to C-terminus
T5 sequence (A3RFZ7 21-206): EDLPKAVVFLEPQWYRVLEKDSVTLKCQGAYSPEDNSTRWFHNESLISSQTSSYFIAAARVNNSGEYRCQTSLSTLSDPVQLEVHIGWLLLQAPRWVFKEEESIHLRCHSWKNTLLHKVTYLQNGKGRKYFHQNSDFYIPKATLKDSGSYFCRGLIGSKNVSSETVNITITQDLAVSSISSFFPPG
Description: as §1, §2

[6] = target: T6, human FcγRIIaH extracellular domain, C-terminal His-tag (human, UniProt P12318 34-217)
T6 construct: also called human FcγRIIa (type H); FcgRIIaH; not shown: His-tag added to C-terminus
T6 sequence: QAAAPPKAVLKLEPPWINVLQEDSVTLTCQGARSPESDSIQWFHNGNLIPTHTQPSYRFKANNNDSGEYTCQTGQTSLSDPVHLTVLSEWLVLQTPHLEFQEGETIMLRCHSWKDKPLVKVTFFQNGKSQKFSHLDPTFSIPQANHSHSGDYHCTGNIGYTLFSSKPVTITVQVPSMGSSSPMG
Description: as §1, §2

[7] = target: T7, human FcγRIIaR extracellular domain, C-terminal His-tag (human, UniProt P12318 34-217)
T7 construct: also called human FcγRIIa (type R); FcgRIIaR; not shown: His-tag added to C-terminus
T7 chain: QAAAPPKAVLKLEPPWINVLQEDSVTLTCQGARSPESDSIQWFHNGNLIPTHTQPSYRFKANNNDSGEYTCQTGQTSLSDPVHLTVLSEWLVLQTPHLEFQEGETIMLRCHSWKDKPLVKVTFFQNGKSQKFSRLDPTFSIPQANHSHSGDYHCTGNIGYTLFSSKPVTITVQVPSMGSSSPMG
Description: as §1, §2

[8] = target: T8, human FcγRIIb extracellular domain, C-terminal His-tag (human, UniProt P31994 43-217)
T8 construct: also called FcgRIIb (human); not shown: His-tag added to C-terminus
T8 sequence: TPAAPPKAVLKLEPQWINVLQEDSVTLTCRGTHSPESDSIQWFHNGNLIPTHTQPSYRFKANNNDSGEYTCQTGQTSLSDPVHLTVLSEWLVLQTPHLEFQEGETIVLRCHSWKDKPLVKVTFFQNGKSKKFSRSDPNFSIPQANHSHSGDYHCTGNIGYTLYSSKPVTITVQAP
Description: as §1, §2

[9] = target: T9, human FcγRIIIaV extracellular domain, C-terminal His-tag (human, UniProt P08637 17-208)
T9 construct: also called FcgRIIIaV; not shown: His-tag added to C-terminus
T9 sequence (P08637 17-208 F176V): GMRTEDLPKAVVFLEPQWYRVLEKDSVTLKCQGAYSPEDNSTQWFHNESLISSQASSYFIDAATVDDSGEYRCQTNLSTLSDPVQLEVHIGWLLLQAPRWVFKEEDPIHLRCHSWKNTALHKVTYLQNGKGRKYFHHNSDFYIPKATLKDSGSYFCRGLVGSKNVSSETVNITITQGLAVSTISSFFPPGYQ
Description: as §1, §2

Binder | Kd [1] | Kd [2] | Kd [3] | Kd [4] | Kd [5] | Kd [6] | Kd [7] | Kd [8] | Kd [9]
B1 | 3400 nM | 4800 nM | 5300 nM | 1000 nM | 4300 nM | 350 nM | 200 nM | 170 nM | 9900 nM
B2 | 1900 nM | 3200 nM | 3700 nM | 590 nM | 2300 nM | 270 nM | 210 nM | 160 nM | 6400 nM

From US20200317768A1 (published 2020)
